Data set [1] deals with T1, δ^1-pyrroline-5-carboxylate reductase (MtP5CR) (Medicago truncatula, UniProt G7KRM5).
T1 construct: gene MTR_7g090160; MtP5CR_1, His6-tag cleaved; homodecamer
As to the kind of experiment: X-ray crystal structure of the cocrystallized complex ([…] Å). In kind it is binding.

The target in data set [2] is T1, δ^1-pyrroline-5-carboxylate reductase (MtP5CR). As to the kind of experiment: NAD(P)H oxidation assay at […] nm, kinetic analysis of inhibition. The format is biochemical.
Data set [3] concerns the molecule itself. As to the kind of experiment: crystal structure; space group P1, one decamer in the asymmetric unit; 100 mM HEPES/MOPS pH 7.5, 10% PEG 4000, 20% glycerol, 30 mM MgCl2, 30 mM CaCl2, 19°C; unliganded and with NAD+, NADP+ or L-proline.
Substrate in data set [4]: NC(=O)C1=CN([C@@H]2O[C@H](COP(=O)(O)OP(=O)(O)OC[C@H]3O[C@@H](n4cnc5c(N)ncnc54)[C@H](OP(=O)(O)O)[C@@H]3O)[C@@H](O)[C@H]2O)C=CC1
As to the kind of experiment: purified protein. Conditions: varied: cofactor.

Substrate in data set [5]: NC(=O)C1=CN([C@@H]2O[C@H](COP(=O)(O)OP(=O)(O)OC[C@H]3O[C@@H](n4cnc5c(N)ncnc54)[C@H](O)[C@@H]3O)[C@@H](O)[C@H]2O)C=CC1
Briefly: purified protein. Conditions: varied: cofactor.

Substrate in data set [6]: O=C(O)C1CCC=N1
Briefly: steady-state kinetics of the purified enzyme, KM(app). In kind it is biochemical, Medicago truncatula. Conditions: NADPH C-terminal domain contains the P5C binding site.

Turning to `NC(=O)c1ccc[n+]([C@@H]2O[C@H](COP(=O)([O-])OP(=O)(O)OC[C@H]3O[C@@H](n4cnc5c(N)ncnc54)[C@H](O)[C@@H]3O)[C@@H](O)[C@H]2O)c1` [NAD^+], in data set [1], the “X-ray crystal structure of the cocrystallized complex (1.85 Å)” value is recorded as “In the case of NAD^+ (Figure 8A), the adenine N1 atom interacts with Nδ of Asn65”.
In data set [2], `O=S(=O)(O)CCN1CCN(CCO)CC1` [HEPES, 2-[4-(2-hydroxyethyl)piperazin-1-yl]ethanesulfonic acid] yielded an inhibition constant Ki of 1.83 ± 0.08 mM.

B1: Medicago truncatula δ1-pyrroline-5-carboxylate reductase (enzyme, UniProt G7KRM5 1-274, looked up)
chain: MEIIPIPADSYTLGFIGAGKMAESIAKGAVRSGVLSPSRIKTAIHSNPARRTAFESIGITVLSSNDDVVRDSNVVVFSVKPQLLKDVVLKLKPLLTKDKLLVSVAAGIKMKDLQEWAGHERFIRVMPNTAATVGEAASVMSLGGAATEEDANLISQLFGSIGKIWKADDKYFDAITGLSGSGPAYIYLAIEALADGGVAAGLPRDLALSLASQTVLGAASMATQSGKHPGQLKDDVTSPGGTTIAGVHELEKAGFRGILMNAVVAAAKRSQELS
notes: P5C reductase (EC 1.5.1.2) of Medicago truncatula, isoform MtP5CR_1 (without the 29-residue insert of MtP5CR_2, A2Q2Y7); cDNA from leaf RNA; printed primers run from the ATG to the stop codon; monomer 28.5 kDa; Vector pMCSG68: His6 tag and TEV site at the N-terminus, cut off with TEV protease; Homodecamer (pentamer of dimers); also called MtP5CR; MtP5CR_1; source: E. coli BL21 Gold, purified …
As to B1, the “stoichiometry N” value in data set [3] turned out to be 10. In addition, in the data set “purified protein [4]”, the Km is 39 ± 3 µM, the Vmax is 36.1 ± 0.7 μkat (mg protein)^−1, the kcat is 1113 s⁻¹ and the kcat/Km turned out to be 2.85e+07 M⁻¹ s⁻¹. For the same molecule, in “purified protein [5]”, the Km was found to be 468 ± 22 µM, the Vmax is on record as 92.4 ± 2.1 μkat (mg protein)^−1, the kcat was 2972 s⁻¹ and the kcat/Km worked out at 6.35e+06 M⁻¹ s⁻¹. Further, the Km in data set [6] is 20 ± 2 µM.
